Laboratory results: US20260256923, “NEW RECRUITMENT ELEMENT OF UBIQUITIN LIGASE AND USE THEREOF” (SHENZHEN LINGGENE BIOTECH CO., LTD., published 2026)

What was measured:
Nucleolin (NCL) = Nucleolin (NCL) (Homo sapiens, UniProt P19338 P19338:2-710); test: pulldown; 400 nM oligo, with MDM2, 4 C; conditions: tags: ACROBiosystems NUL-H5253, label: 5'-biotin
Procedure: (§1) 6 μg/mL recombinant human NCL and 6 μg/mL recombinant human MDM2 were mixed well and incubated at 4° C. for 7 h. Subsequently, 400 nM CRO, AS1411, or iSN04 labeled by biotin at the 5′ end was added, and the mixture was incubated at 4° C. for 6 h. Streptavidin agarose gel beads (purchased from cytiva, Cat. No.: 17511301) were added, and the mixture was further incubated at 4° C. overnight. The gel beads were washed 4 times with a TBST buffer, and an SDS-PAGE protein loading buffer (purchased from Beyotime, Cat. No.: P0015) was added. The mixture was heated to 100° C. and held for 10 min. After centrifugation, the supernatant was collected. The pull-down product was then detected by western blot assay.

MDM2 [1] = molecular target: T1, MDM2 (Homo sapiens, UniProt Q00987 Q00987:1-491); test: pulldown; NCL present; iSN04 blocks NCL-MDM2 interaction; conditions: tags: R&D Systems E3-202-050; label: 5'-biotin; weak G4 only with K+
T1 sequence (Q00987 whole entry, one chain of several): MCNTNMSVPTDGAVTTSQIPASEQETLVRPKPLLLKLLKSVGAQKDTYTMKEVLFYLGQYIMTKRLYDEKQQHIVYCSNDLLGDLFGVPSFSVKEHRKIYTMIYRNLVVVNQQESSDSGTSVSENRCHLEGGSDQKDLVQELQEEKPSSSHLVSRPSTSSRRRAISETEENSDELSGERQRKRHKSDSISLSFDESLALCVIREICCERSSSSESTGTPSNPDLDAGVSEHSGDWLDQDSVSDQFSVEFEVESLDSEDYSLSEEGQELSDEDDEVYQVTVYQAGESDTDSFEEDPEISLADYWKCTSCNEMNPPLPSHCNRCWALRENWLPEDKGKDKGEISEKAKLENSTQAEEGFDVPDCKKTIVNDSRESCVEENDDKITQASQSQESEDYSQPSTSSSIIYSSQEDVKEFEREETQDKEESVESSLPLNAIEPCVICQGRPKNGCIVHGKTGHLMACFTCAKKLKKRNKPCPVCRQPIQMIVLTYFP
Procedure: as §1

MDM2 [2] = molecular target: T1, MDM2; test: pulldown; NCL present; conditions: tags: R&D Systems E3-202-050; label: 5'-biotin
Procedure: as §1

Nucleolin (NCL), sequence (P19338 2-710, one chain of several): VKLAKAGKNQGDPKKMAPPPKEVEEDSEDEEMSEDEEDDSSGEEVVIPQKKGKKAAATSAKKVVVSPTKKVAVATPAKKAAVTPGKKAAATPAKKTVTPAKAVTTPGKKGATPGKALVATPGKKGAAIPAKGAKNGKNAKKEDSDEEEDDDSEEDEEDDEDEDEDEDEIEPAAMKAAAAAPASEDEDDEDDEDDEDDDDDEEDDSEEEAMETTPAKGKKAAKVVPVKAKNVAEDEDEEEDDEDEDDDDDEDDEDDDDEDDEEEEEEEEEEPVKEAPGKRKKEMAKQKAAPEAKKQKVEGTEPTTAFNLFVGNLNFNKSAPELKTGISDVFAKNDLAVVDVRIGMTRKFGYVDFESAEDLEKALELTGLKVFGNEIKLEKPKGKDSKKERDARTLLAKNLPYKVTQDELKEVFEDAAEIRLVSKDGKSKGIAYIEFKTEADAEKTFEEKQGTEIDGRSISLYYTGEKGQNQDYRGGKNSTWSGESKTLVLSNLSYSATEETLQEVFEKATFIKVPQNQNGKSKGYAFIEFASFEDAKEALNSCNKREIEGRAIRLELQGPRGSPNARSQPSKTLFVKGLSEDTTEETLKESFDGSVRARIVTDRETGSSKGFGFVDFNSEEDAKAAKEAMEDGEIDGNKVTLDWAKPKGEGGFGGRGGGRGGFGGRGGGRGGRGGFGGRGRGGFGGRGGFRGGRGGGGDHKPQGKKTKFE

Binder	binding result (Nucleolin (NCL); weak G4 only with K+)	binding result (MDM2 [1])	binding result (Nucleolin (NCL))	binding result (MDM2 [2])
AGATTAGGGTGAGGGTGA (ssDNA) [iSN04]	binds	no binding	–	–
CCTCCTCCTCCTTCTCCTCCTCCTCC (ssDNA) [CRO]	–	–	no binding	no binding
